Test results from article PMC9864903, “Imaging of the Glucose-Dependent Insulinotropic Polypeptide Receptor Using a Novel Radiolabeled Peptide Rationally Designed Based on Endogenous GIP and Synthetic Exendin-4 Sequences” (Pharmaceuticals, 2022).

Assay: ex vivo organ distribution in Sprague Dawley rats
Conditions: rat, i.v.
Experimental: The in vivo organ distribution of [^68Ga]Ga-C803-GIP was assessed in Sprague Dawley rats (324 ± 36 g, male, n = 16). The radiotracer was administered into the tail vein of unsedated animals as a bolus in 0.5–0.6 mL of PBS as the vehicle. The animals received 4.1 ± 2.2 MBq/kg ^68Ga]Ga-C803-GIP corresponding to 2.4 ± 1.3 µg/kg peptide mass.
The in vivo organ distribution was conducted for 5 to 180 min, euthanizing two animals at each of eight time points (5, 10, 20, 40, 60, 90, 120, or 180 min). Samples of blood, heart, lung, liver, pancreas, spleen, adrenal, kidney, small intestine (without/with its content), large intestine (without its content), feces, urinary bladder (rinsed), testis, muscle, bone, bone marrow, thyroid, and brain were immediately harvested, weighed, and measured for radioactivity (gamma counter). The organ uptake of [^68Ga]Ga-C803-GIP was corrected for radioactivity decay to the time point of administration and expressed as standardized uptake values (SUVs, Equation (1)). (1) SUV (1/1)=Radioactivitytissue (Bq)/Weighttissue(g)/Radioactivityinjected (Bq)/Weightbody(g)
The competition experiments were designed and guided by the results of the organ distribution study. Based on the observed rapid clearance of [^68Ga]Ga-C803-GIP from the pancreas (known to contain the GIPR), 20 min post-administration was the time point selected for the blocking studies. The rats (351 ± 23 g, male, n = 8) were administered [^68Ga]Ga-C803-GIP (18.4 ± 3.7 MBq/kg; 10.7 ± 2.2 µg/kg). A high radioactive dose was selected to potentially increase the tissue signal. Half of them (n = 4) received [^68Ga]Ga-C803-GIP alone, while the other half was co-injected with 1 mg/kg of non-labeled C803-GIP. The animals were sacrificed 20 min after the administration of [^68Ga]Ga-C803-GIP, and the tissue uptake of the tracer was analyzed as described above.

With CC[C@H](C)[C@H](NC(=O)[C@H](CO)NC(=O)[C@H](Cc1ccc(O)cc1)NC(=O)[C@H](CC(=O)O)NC(=O)[C@H](CO)NC(=O)[C@@H](NC(=O)[C@H](Cc1ccccc1)NC(=O)[C@@H](NC(=O)CNC(=O)[C@H](CCC(=O)O)NC(=O)[C@@H](C)NC(=O)[C@@H](N)Cc1ccc(O)cc1)[C@@H](C)O)[C@@H](C)CC)C(=O)N[C@@H](C)C(=O)N[C@@H](CC(C)C)C(=O)N[C@@H](CC(=O)O)C(=O)N[C@@H](CCCCN)C(=O)N[C@H](C(=O)N[C@@H](Cc1c[nH]cn1)C(=O)N[C@@H](CCC(N)=O)C(=O)N[C@@H](CCC(N)=O)C(=O)N[C@@H](CCC(=O)O)C(=O)N[C@@H](Cc1ccccc1)C(=O)N[C@H](C(=O)N[C@@H](CCC(=O)O)C(=O)N[C@@H](Cc1c[nH]c2ccccc12)C(=O)N[C@@H](CC(C)C)C(=O)N[C@@H](CCCCN)C(=O)N[C@@H](C)C(=O)NCC(=O)NCC(=O)N[C@@H](Cc1c[nH]cn1)C(=O)N1CCC[C@H]1C(=O)N[C@@H](CO)C(=O)NCC(=O)N[C@@H](C)C(=O)N1CCC[C@H]1C(=O)N1CCC[C@H]1C(=O)N1CCC[C@H]1C(=O)N[C@@H](CO)C(=O)N[C@@H](CSCCS(=O)(=O)CCN1CCN(CC(=O)O)CCN(CC(=O)O)CCN(CC(=O)O)CC1)C(N)=O)[C@@H](C)CC)[C@@H](C)CC [[^68Ga]Ga-C803-GIP, metal not drawn] the SUV at 5 min (male, Sprague Dawley, liver, iv, total radioactivity, 5 min post-administration, read-out: liver uptake) was under 1 SUV, the “liver washout with respect to the 5 min time point, within 1 h” value was 50% and the “liver washout with respect to the 5 min time point, within 3 h” value was 75%. It also gave a kidney uptake (within 3 h) of 85.5 ± 1.6 SUV.
